{
  "source": "patent US7803758B2",
  "about": "“I kappa B kinase complex as a target for the treatment of Huntington's disease” (California Institute of Technology, priority 2004, dated 2010)",
  "molecules": {"B1": {"name": "DN-IKKγ: IKKγ with the first 134 amino acids removed; N-terminally truncated form that interferes with IKK activity (protein, UniProt Q9Y6K9 135-419, looked up, fragment)", "chain": "MAEDKASVKAQVTSLLGELQESQSRLEAATKECQALEGRARAASEQARQLESEREALQQQHSVQVDQLRMQGQSVEAALRMERQAASEEKRKLAQLQVAYHQLFQEYDNHIKSSVVGSERKRGMQLEDLKQQLQQAEEALVAKQEVIDKLKEEAEQHKIVMETVPVLKAQADIYKADFQAERQAREKLAEKKELLQEQLEQLQREYSKLKASCQESARIEDMRKRHVEVSQAPLPPAPAYLSSPLALPSQRRSPPEEPPDFCCPKCQYQAPDMDTLQIHVMECIE"}},
  "key": {"[1]": {"system": "PC12 cells expressing mutant HDx1", "assay": "Mutant HDx1 toxicity in PC12 cells treated with IKK inhibitor", "format": "cell-based", "details": "Example 5", "method": "To examine the effects of a small molecule IKK inhibitor on mutant Htt toxicity, PC12 cells expressing mutant HDx1 are treated with herbimycin or another known IKK inhibitor plus β-gal and NF-κB reporter in six-well plates, essentially as described above in Example 4."}, "IKKβ subunit": {"biological_target": "T1, IKKβ subunit (Homo sapiens, UniProt O14920)", "T1 sequence (O14920 1-756)": "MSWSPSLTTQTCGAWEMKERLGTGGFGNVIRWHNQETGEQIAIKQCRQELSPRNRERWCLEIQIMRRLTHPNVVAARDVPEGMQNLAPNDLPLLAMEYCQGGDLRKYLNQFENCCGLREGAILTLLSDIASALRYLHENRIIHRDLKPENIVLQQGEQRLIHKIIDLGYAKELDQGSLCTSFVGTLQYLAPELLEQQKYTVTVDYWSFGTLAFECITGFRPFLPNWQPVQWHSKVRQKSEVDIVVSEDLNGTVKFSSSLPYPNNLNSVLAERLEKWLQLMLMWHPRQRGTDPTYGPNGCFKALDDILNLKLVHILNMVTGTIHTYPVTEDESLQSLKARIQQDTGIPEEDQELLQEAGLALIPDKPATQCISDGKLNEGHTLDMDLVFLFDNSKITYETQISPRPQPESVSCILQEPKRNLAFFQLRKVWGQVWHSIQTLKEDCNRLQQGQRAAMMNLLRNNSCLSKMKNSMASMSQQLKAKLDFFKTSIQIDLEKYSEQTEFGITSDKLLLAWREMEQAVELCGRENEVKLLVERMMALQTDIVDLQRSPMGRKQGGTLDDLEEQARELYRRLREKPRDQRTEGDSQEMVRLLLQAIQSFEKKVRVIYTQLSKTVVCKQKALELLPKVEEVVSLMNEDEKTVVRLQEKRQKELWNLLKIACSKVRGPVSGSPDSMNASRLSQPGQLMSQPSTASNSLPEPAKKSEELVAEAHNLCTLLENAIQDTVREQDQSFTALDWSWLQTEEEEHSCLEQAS", "details": "Ogino et al., Mol. Pharmacol. 2004; cited from earlier work"}, "[2]": {"system": "NF-κB-dependent gene expression", "assay": "NF-κB luciferase gene reporter assay in inducible PC12 cells expressing mutant HDx1", "format": "cell-based", "source_text": "Gene Reporter and transfections. The pNF-κB-luciferase with five enhanced elements and the control plasmid without NF-κB binding sites, pCIS-CK luciferase, were used for gene reporter assays (Strategene, La Jolla, Calif.). To normalize for transfection efficiency between samples, a β-galactosidase (β-gal) construct expressed from the EF-1α promoter (Invitrogen, Carlsbad, Calif.), was included in all gene reporter assays. PC12 cells were transfected with control or NF-κB-luciferase plasmids using lipofectamine-plus. On the following day, cells were left untreated or stimulated for 8 hr with 1 μg/ml ecdysone to induce expression of HDx1. […] Luciferase activity was measured by addition of the substrate (Promega, Madison, Wis.) to equal amounts of protein from each sample. […] All gene reporter assays were corrected for transfection efficiency by normalizing the units if β-gal in the extracts, using the β-gal assay (Invitrogen). β-gal values from the samples were divided by the β-gal value from control, 25polyQ, noninduced PC12 cells (no expression of HDx1) and multiplied by each corresponding luciferase reading. […]\nGene Reporter and transfections. […] Protein concentration was determined by the BCA method (Pierce, Rockford, Ill.). […] Bound p65 was detected with a goat anti-rabbit antibody conjugated to horseradish peroxidase. […]"}, "mutant HDx1": {"system": "mutant HDx1", "assay": "Confocal examination of mutant HDx1 aggregation in HEK-293 cells", "format": "cell-based, Human", "details": "early time point before widespread toxicity", "method": "(§1) Transfection of HEK-293 cells with mutant HDx1-EGFP alone (Kasantsev et al., 1999) or with one of the following constructs, full-length (F), DN, and deleted C terminus (DC) of IKKγ (provided by Dr. E. Zandi, University of Southern California) Rothwarf et al., 1998) or ΔF-βTrCP, was done using lipofectamine-plus reagents (Invitrogen). For histochemistry, cultured cells were fixed in 4% paraformaldehyde for 30 min, permeabilized with 70% methanol for 1 hr., and washed with PBS. Cells were stained with anti-HA for IKKγ or anti-myc for ΔF-βTrCP (Cell Signaling, Beverly, Mass.) followed by a goat anti-mouse antibody conjugated by Alexa 594 (Molecular Probes, Eugene, Oreg.). Toto-3, a dimeric cyanine, was used to stain nuclei (Molecular Probes). […] Mutant HDx1 toxicity was assessed by counting the number of condensed GFP-positive bodies, which are remnants of […] deoxynucleotidyl transferase-mediated biotinylated UTP nick endlabeling (TUNEL)-positive (TUNEL^+) cells (Khoshnan et al., 2002), using a florescence microscope. […] Apoptotic cells were labeled with terminal deoxynucleotidyl transferase using digoxigenin-labeled nucleotides and detected by anti-digoxigenin antibody and rhodamine-conjugated secondary according to the instructions provided by the manufacturer (Chemicon, Temecula, Calif.)."}, "HEK-293 cells [3]": {"system": "HEK-293 cells", "assay": "Mutant HDx1 toxicity in transfected HEK-293 cells (count of condensed GFP-positive bodies)", "format": "cell-based, Human", "details": "48 hr after transfection", "method": "as §1"}, "striatal MSNs": {"system": "striatal MSNs", "assay": "Brain slice neurodegeneration assay (biolistic transfection of MSNs with HDx1)", "format": "cell-based", "details": "P7 rat brain slices; for effect on MSNs expressing WT HDx1: coexpression with WT HDx1; for neurodegeneration / toxicity of mutant HDx1 in MSNs: coexpression with mutant HDx1, 7 d", "method": "Brain slice preparation. All animal experiments were performed in accordance with the Institutional Animal Care and Use Committee and Duke University Medical Center Animal Guidelines. Postnatal day 7 (P7) CD Sprague Dawley rats (Charles River Laboratory, Raleigh, N.C.) were decapitated, and the brains were surgically removed and placed in ice-cold Neurobasal medium (Invitrogen). The tissue was fixed to a chilled, stainless steel Vibratome stage using cyanoacrylate glue (Krazy-Glue) and covered with Neurobasal medium. Coronal brain slices (250 μm thick) were cut by Vibratome (VT1000S; Leica, Nusslock Germany) as described previously (Edgerton and Reinhart, 2003). Brain slices were kept at 37° C. in 5.0% CO2 for 1 hr.\nBolistic transfection. Gold particles (1.6 μm gold microcarriers; BioRad, Hercules, Calif.) were used as DNA carriers for transfection as described previously (Lo et al., 1994). Briefly, gold particles were sonicated in 0.05 M spermidine in the presence of plasmid DNA. The gold-DNA mixture was washed three times in 100% ethanol before being loaded into Helios plastic cartridges (Bio-Rad) according to manufacturer's instructions. Slices were transfected using a Bio-Rad Helios gun with a cyan fluorescent protein (CFP)-tagged Htt fragment, together with yellow fluorescent protein (YFP) as a morphometric marker. In a number of experiments, one of the IKKγ constructs was also cotransfected with the Htt-construct and YFP. CFP-tagged Htt fragments were exon-1-N-terminal fragments containing either a short-Q (Q23) or a long-Q (Q148) polyQ domain.\nBrain slice neurodegeneration assay. For each condition, transfections were performed on […] brain slices per experiment. Protein expression and neurodegeneration (loss of processes, shriveling of the soma) were assay 2-7 d after transfection using a Leica fluorescence microscope with appropriate filters for YFP and CFP. The total area of the striatum was identified, and transfected MSNs were identified by their morphology. CFP fluorescence was used to determine expression of Htt fragments and their aggregation into macro-inclusions. Each experiment involved three to twelve transfected brain slices per condition, and the data are means from six independent experiments for each condition."}, "HEK-293 cells [4]": {"system": "HEK-293 cells", "assay": "TUNEL staining of HEK-293 cells transfected with mutant HDx1", "format": "cell-based, Human", "details": "HEK-293 cells cotransfected with mutant HDx1", "method": "as §1"}, "GST-HDx1": {"biological_target": "T2, GST-HDx1 (Homo sapiens, UniProt P42858, INS38QQQQQQQQQQQQQQQQQQQQQQQQQQQQQQ)", "T2 construct": "GST-HDx1 with 20 or 51 polyQs, with and without polyproline domains, was obtained from Dr. E. Wanker; made in house; host or cells: Escherichia coli", "T2 sequence (P42858 with tags, fused parts or gaps with the stated changes)": "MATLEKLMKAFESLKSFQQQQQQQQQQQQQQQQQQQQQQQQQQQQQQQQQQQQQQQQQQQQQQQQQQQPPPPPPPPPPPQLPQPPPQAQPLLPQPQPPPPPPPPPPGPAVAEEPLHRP", "assay": "GST pull-down binding of in vitro-translated IKKγ constructs to GST-HDx1", "details": "[35S] methionine-labeled construct, GST-HDx1 with expanded polyQ", "method": "Protein-protein interaction. In vitro binding of IKKγ to mutant HDx1 was performed using glutathione S-transferase (GST)-pull down assays. GST-HDx1 with 20 or 51 polyQs, with and without polyproline domains, was obtained from Dr. E. Wanker (Max Plank Institute, Berlin, Germany). These constructs were expressed in Escherichia coli and purified with glutathione beads (Amersham Biosciences, Piscataway, N.J.) according to manufacturer's instructions. IKKγ constructs were transcribed and translated in rabbit reticulocytes in the presence of [^35S] methionine (Promega). Briefly, 5 μg of GST-HDx1 bound to beads was incubated with 10 μl of each labeled in vitro-translated IKKγ produce in 500 μl of Tris-based buffer containing 10% glycerol and 6 mM DTT and rocked at room temperature for 2 hr. Beads were washed five times in the same buffer. Bound IKKγ was examined by SDS-PAGE, followed by autoradiography. Recombinant anti-HDx1 intrabodies (Khoshnan et al., 2002) were expressed and examined similarly from binding to GST-HDx1. For competition assays, 10-fold excess in vitro-translated intrabodies were added to GST-HDx1 plus deleted C terminus IKKγ and processed as above."}},
  "data": [
    {"molecule": "CO[C@H]1[C@@H](OC)C[C@H](C)[C@@H](OC)C2=CC(=O)C=C(NC(=O)/C(C)=C/C=C\\[C@H](OC)[C@@H](OC(N)=O)/C(C)=C/[C@@H]1C)C2=O", "note": "[Herbimycin, Herbimycin A]", "values": [
      {"measurement": "toxicity of mutant HDx1 in cultured cells", "setting": "[1]", "result": "blocks the toxicity"},
      {"measurement": "NF-κB activation", "setting": "IKKβ subunit", "result": "abrogates NF-κB activation"},
      {"measurement": "NF-κB expression", "setting": "[2]; PC12 cells expressing mutant HDx1, Example 5", "result": "reduce NF-κB expression"}
    ]},
    {"molecule": "IKKγ: full-length regulatory subunit of the IKK complex, expressed from a construct", "values": [
      {"measurement": "aggregation of mutant HDx1", "setting": "mutant HDx1", "result": "promotes aggregation of mutant HDx1"},
      {"measurement": "toxicity of mutant HDx1 (condensed GFP+ bodies)", "setting": "HEK-293 cells [3]", "result": "little effect on toxicity"},
      {"measurement": "effect on MSNs expressing WT HDx1", "setting": "striatal MSNs", "result": "no obvious effect"},
      {"measurement": "neurodegeneration / toxicity of mutant HDx1 in MSNs", "setting": "striatal MSNs", "result": "no significant effect on neurodegeneration"}
    ]},
    {"molecule": "WT-βTrCP: wild-type E3-ubiquitin ligase βTrCP", "values": [
      {"measurement": "neurodegeneration / toxicity of mutant HDx1 in MSNs", "setting": "striatal MSNs", "result": "does not influence the toxicity of mutant HDx1 in MSNs"}
    ]},
    {"molecule": "B1", "values": [
      {"measurement": "aggregation of mutant HDx1", "setting": "mutant HDx1", "result": "no apparent effect on HDx1 aggregation"},
      {"measurement": "number of TUNEL+ cells", "setting": "HEK-293 cells [4]", "result": "significantly reduced"},
      {"measurement": "binding of IKKγ construct to HDx1", "setting": "GST-HDx1", "result": "diminishes binding to HDx1"},
      {"measurement": "toxicity of mutant HDx1 (condensed GFP+ bodies)", "setting": "HEK-293 cells [3]", "result": "strongly reduces the toxicity of mutant HDx1"},
      {"measurement": "effect on MSNs expressing WT HDx1", "setting": "striatal MSNs", "result": "no obvious effect"},
      {"measurement": "neurodegeneration / toxicity of mutant HDx1 in MSNs", "setting": "striatal MSNs", "result": "significantly neuroprotective"},
      {"measurement": "mutant HDx1-induced NF-κB-dependent gene expression", "setting": "[2]; PC12 cells, ecdysone-induced HDx1, with or without NGF", "result": "blocks basal and NGF-induced NF-κB-dependent gene expression"}
    ]}
  ]
}
